T1: FGFR1 Ig modules 2, 3 (Mus musculus, UniProt P16092)
T1 construct: amino acids 249-365 and 141-365 of FGFR (swissprot p16092), respectively; made in house; host or cells: Drosophila S2 cells
T1 sequence (P16092 141-365): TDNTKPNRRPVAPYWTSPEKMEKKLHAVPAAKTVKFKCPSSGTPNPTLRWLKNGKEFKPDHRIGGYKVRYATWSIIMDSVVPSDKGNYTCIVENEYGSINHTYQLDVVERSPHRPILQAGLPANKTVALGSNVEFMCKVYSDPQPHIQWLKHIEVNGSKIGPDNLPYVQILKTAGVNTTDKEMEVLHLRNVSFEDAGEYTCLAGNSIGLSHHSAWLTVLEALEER

T2: FGFR Ig module 2 (Mus musculus, UniProt P16092)
T2 sequence (P16092 140-251): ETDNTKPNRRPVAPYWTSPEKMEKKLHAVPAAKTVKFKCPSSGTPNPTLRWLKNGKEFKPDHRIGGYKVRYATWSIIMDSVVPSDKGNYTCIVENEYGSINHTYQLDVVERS

B1: NCAM F3 module 2: recombinant protein: AG and amino acids 612-705 of rat NCAM (swissprot p13596) (protein)
chain: AGPSAPKLEGQMGEDGNSIKVNLIKQDDGGSPIRHYLVKYRALASEWKPEIRLPSGSDHVMLKSLDWNAEYEVYVVAENQQGKSKAAHFVFRTSAQ

Tests used:
[1] = biological target: interaction between the NCAM F3 modules 1, 2 and the FGFR modules 2, 3 (Rattus norvegicus, UniProt P13596); assay: biochemical
hippocampal neurons = assay: Neurite outgrowth from hippocampal neurons; assay type: cell-based, rat; conditions: for neurite outgrowth in dose-response study: neurite length versus concentration
Protocol: Dissociated neurons from embryonic rat hippocampus (embryonic day 19), prepared as described (Skladchikova et al., 1999), were grown on Permanox plastic (Nunc) for 24 h at a density of 6000 cells/cm^2, at 37° C., 5% CO2 in Neurobasal medium containing 20 mM Hepes, 100 U/ml penicillin, 100 μg/ml streptomycin, 0.4% BSA supplemented with B27 (Gibco BRL) and the below specified compounds. After 24 h, cells were fixed with paraformaldehyde, stained with Coomassie Brilliant Blue R250 and the length of neurites was measured as described (Skladchikova et al, 1999).

rat FGFR1 (IIIC isoform) = biological target: T3, rat FGFR1 (IIIC isoform) (Rattus norvegicus, UniProt Q04589); assay: FGFR1 phosphorylation, Assay 2 (HEK293 cells, His-tagged FGFR1); assay type: cell-based; conditions: 20 min, 5 μM F3 module 2, 25 μM monomeric FG loop peptide
T3 construct: expressed in transfected cells; host or cells: HEK293 cells, transient, pcDNA3.1(+)
Protocol: Assay 2: The cDNA for the rat FGFR1 (IIIC isoform) was cloned by RT-PCR using RNA isolated from the rat PC12 cell line and inserted into a pcDNA3.1(+) plasmid (invitrogen), which allows expression of FGFR1 fused to the N-terminal of hexahistidine. ˜8×10^5 HEK293 cells were cultured for 24 h in 60 mm plates in full medium (DMEM 1965 supplemented with 10% FCS, 100 U/ml penicillin, 100 μg/ml streptomycin and […] Glutamax) and then transfected with 0.2 μg plasmid (with FGFR) using the LipofectAMIN PLUS™ reagent kit according to the manufacturer's instructions (Gibco BRL). Cells were grown for another 24 hrs in full medium, and then shifted to starvation media (DMEM 1965) overnight. FGFR transfected cells were stimulated for 20 min with the specified compounds, lysed in 8M urea, 1 mM orthovanadate (in PBS) and purified from the lysate via the His-tag as follows: The lysate was loaded on Ni^2+/NTA-sepharose (Qiagen), washed with lysis buffer plus 10 mM imidazole, and the FGFR was eluted with lysis buffer plus 250 mM imidazole. The purified FGFR was analysed by immunoblotting using anti-pentahis (Qiagen) or anti-phosphotyrosine (PY20, Transduction Laboratories) antibodies. The bands were visualised by chemilumiscense and the band density was measured using a GeneGnome apparatus (SynGene).

[2] = test system: polyclonal antibody raised against the intact FGL-peptide; assay: Competitive ELISA of immunoreactivity with antibody raised against FGL-peptide; assay type: binding; conditions: rabbit serum
Source text: Antibody specifically recognising an epitope comprising SEQ ID NO: 1 (FGL-peptide) were raised in rabbits according the standard procedure (Gill B M, Barbosa J A, Dinh T Q, Garrod S, O'Connor D T: Chromogranin B: isolation from pheochromocytoma, N-terminal sequence, tissue distribution and secretory vesicle processing. Regul Peptides 33:223-35, 1991). Synthetic FGL-peptide was coupled to a carrier protein, KLH (Keyhole Limpets Hemocyanin). The peptide was mixed with Freunds incomplete adjuvant and the mixture was injected into rabbits. 208 μg peptide was used per immunisation (per rabbit).
Antibodies (serum) were tested for specificity by competitive ELISA using a series FGL-peptide truncated variants according to the protocol described in R. J. Jenny, T. L. Messier, L. A. Ouellette, and W. R. Church, Methods Enzymol. 222, 400 (1993). 100% immunoreactivity was ob-served only with the intact FGL-peptide consisting of SEQ ID NO: 1.

FGFR1 Ig modules 2, 3 = biological target: T1, FGFR1 Ig modules 2, 3; assay: SPR binding to immobilized FGFR Ig modules 2, 3
Source text: The NCAM F3 modules 1, 2 (without expression of exons a, AAG), and FGFR1 Ig modules 2, 3 were produced using rat NCAM cDNA and mouse FGFR1 (IIIC iso-form) cDNA. The F3 module 1 and the combined F3 modules 1, 2 consist of […] (SEQ ID NO:173) and amino acids 507-611 and 507-705 of NCAM (swissprot p13596), respectively. […] The FGFR Ig module 2 consists of […] […] The FGFR Ig module 3 and the combined Ig modules 2, 3 consist of […] (SEQ ID NO:174) and amino acids 249-365 and 141-365 of FGFR (swissprot p16092), respectively. […] All the proteins were purified by affinity chromatography using Ni2^+−NTA resin (Qiagen, USA) and/or ion exchange chromatography and gel filtration. ^15N-labelled F3 module 2 was produced as described (Thomsen et al., 1996). The NCAM Ig modules 1, 2 and 3 (RV and amino acids 20-308 of rat NCAM, swissprot p13596) was produced as described (Soroka et al., 2002).
The flow-rate was 5 μl/min. […] The FGFR Ig modules 2, 3 were immobilized on a sensor chip CM5 using amine coupling kit (Biosensor AB) as follows: 1) the two halves of the chip (designated Fc1 and Fc2) were activated by 20 μl activation solution; 2) the protein was immobilized on Fc1 using 12 μl 20 μg/ml protein in 10 mM sodium phosphate buffer pH 6.0; 3) Fc1 and Fc2 were blocked by 35 μl blocking solution. […] The resulting curve was used for analysis.

human FGFR1 = biological target: T4, human FGFR1 (Homo sapiens, UniProt P11362); assay: FGFR1 phosphorylation, Assay 1 (TREX-293 cells, StrepII-tagged FGFR1); assay type: cell-based; conditions: 20 min, 5 μM F3 module, 2.5 μM dendrimeric FG loop peptide
T4 construct: expressed in transfected cells; host or cells: TREX-293 cells (Invitrogen), Flp-In system
Protocol: Assay 1: TREX-293 cells (Invitrogen) were stably transfected with human FGFR1 having a C-terminal StrepII-tag (IBA biotech), using the Flp-In system (Invitrogen). For the study of phosphorylation: ˜2×10^7 cells were starved overnight before stimulation for 20 min with the specified compounds. Cells were lysed in PBS with 1% NP-40 and phosphatase inhibitors cocktail set II (Calbiochem). The cleared cell lysates were incubated with 50 μl agarose-coupled anti-phosphotyrosine antibodies (4G10-AC, Upstate Biotechnologies) for 3 hrs at 4° C. Care was taken to calibrate the amount of cells employed, so that considerable increases in phosphorylated FGFR could be detected. The bound protein was washed, eluted using 150 mM phenyl phosphate (Sigma), precipitated by 12% trichloroacetic acid, washed in cold acetone and dissolved in SDS-PAGE sample buffer. Immunoblotting was performed using antibodies against the recombinant StrepII-tag (IBA biotech). For immunoprecipitation: ˜1×10^7 cells were transiently transfected with the 180 kDa NCAM isoform or a control vector. Cells were incubated for 24 h and then starved overnight. After lysis, FGFR was purified on a StrepTactin Minicolumn (IBA Biotech) according to the manufacturer's instructions, and analyzed by immunoblotting with polyclonal antibodies against human NCAM.

FGFR Ig module 2 = biological target: T2, FGFR Ig module 2; assay: 15N-HSQC NMR chemical shift changes of NCAM F3 module 2 with FGFR Ig module 2; assay type: binding; conditions: 50 μM 15N-labeled F3 module 2, 1 mM FGFR Ig module 2
Source text: The NCAM F3 modules 1, 2 (without expression of exons a, AAG), and FGFR1 Ig modules 2, 3 were produced using rat NCAM cDNA and mouse FGFR1 (IIIC iso-form) cDNA. The F3 module 1 and the combined F3 modules 1, 2 consist of […] (SEQ ID NO:173) and amino acids 507-611 and 507-705 of NCAM (swissprot p13596), respectively. […] The FGFR Ig module 2 consists of […] […] The FGFR Ig module 3 and the combined Ig modules 2, 3 consist of […] (SEQ ID NO:174) and amino acids 249-365 and 141-365 of FGFR (swissprot p16092), respectively. […]
The following samples were used for the structure determination of the NCAM F3 module 2: 2 mM module in H2O or D2O and 1 mM ^15N-labelled module in H2O. […] The following NMR spectra were recorded and used for assignment: TOCSY in H2O or D2O (45 and 70 ms mixing time), NOESY in H2O or D2O (80 and 200 ms mixing time), DQFCOSY, ^15N-HSQC, ^15N-TOCSY-HSQC (70 ms mixing time), and ^15N-NOESY-HSQC (125 ms mixing time) (Bodenhausen and Ruben, 1980; Braunsweiler and Ernst, 1983; Kumar et al., 1981; Piantini et al., 1982; Zhang et al., 1994). […] All spectra were recorded at 298 K. The assignment of the ^1H and ^15N resonances were performed using the program PRONTO (Kjaer et al., 1994). […]

T3 sequence (Q04589 22-822): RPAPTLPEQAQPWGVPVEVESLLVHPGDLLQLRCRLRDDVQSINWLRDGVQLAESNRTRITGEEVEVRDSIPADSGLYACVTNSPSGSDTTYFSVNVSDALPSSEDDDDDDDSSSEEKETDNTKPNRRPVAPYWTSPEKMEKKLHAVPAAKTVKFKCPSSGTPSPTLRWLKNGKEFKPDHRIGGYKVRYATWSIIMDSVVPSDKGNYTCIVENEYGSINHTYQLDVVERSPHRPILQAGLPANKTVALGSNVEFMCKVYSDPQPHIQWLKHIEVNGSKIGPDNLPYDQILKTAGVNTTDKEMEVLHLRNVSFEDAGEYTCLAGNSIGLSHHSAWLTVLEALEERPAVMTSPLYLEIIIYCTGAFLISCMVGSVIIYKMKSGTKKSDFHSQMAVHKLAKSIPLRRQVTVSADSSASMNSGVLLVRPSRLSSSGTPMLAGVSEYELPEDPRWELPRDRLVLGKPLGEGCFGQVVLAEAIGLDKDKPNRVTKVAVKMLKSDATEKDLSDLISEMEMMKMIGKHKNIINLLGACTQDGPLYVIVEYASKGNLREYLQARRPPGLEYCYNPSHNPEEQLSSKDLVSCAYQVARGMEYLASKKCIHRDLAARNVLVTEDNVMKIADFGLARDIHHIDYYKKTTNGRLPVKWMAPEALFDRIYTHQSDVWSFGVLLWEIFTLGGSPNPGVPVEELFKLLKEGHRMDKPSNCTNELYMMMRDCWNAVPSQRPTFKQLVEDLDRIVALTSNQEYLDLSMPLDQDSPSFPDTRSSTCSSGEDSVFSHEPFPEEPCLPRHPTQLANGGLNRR
T4 sequence (P11362 22-822): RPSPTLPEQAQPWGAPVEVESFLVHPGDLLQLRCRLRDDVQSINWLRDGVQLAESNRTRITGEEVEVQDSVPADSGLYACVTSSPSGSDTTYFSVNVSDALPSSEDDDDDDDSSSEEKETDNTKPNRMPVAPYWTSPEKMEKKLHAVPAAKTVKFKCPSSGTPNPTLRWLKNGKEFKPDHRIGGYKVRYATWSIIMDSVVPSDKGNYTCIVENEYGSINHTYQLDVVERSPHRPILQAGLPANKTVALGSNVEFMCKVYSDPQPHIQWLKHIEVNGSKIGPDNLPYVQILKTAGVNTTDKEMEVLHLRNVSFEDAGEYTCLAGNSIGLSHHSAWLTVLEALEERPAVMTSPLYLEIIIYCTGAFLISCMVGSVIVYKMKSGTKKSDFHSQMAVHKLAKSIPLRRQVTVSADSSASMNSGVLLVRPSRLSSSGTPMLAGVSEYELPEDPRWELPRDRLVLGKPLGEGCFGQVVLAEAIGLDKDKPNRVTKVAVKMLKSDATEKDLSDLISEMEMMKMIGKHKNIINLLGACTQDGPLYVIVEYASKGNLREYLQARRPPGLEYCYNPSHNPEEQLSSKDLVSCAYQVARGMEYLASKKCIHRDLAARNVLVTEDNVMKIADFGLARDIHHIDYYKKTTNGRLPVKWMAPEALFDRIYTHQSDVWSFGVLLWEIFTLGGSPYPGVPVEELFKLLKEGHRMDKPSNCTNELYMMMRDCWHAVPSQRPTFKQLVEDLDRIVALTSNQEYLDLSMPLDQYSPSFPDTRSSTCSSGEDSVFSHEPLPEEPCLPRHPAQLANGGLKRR
Sequence of interaction between the NCAM F3 modules 1, 2 and the FGFR modules 2, 3 (P13596 507-705): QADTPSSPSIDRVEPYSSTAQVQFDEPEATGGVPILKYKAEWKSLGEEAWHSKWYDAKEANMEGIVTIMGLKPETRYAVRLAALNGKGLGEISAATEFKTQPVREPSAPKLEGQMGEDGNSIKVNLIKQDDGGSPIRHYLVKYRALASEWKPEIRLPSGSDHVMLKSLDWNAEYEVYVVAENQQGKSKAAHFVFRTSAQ

Row | Molecule | Ki [1] [µM] | inhibition of the neuritogenic effect induced by the F3 module 2 (hippocampal neurons; 5 μM F3 module, ATP or AMP-PCP 0.4, 1.0 mM) | inhibition of the neuritogenic effect induced by the FG loop peptide (hippocampal neurons; 50 μM peptide, ATP or AMP-PCP 0.4, 1.0 mM) | increase of FGFR phosphorylation compared to control cells (rat FGFR1 (IIIC isoform)) | neurite outgrowth in dose-response study (hippocampal neurons; hippocampal neurons) | immunoreactivity [2] [%] | binding to the immobilized FGFR modules (FGFR1 Ig modules 2, 3) | stimulation of neurite outgrowth / length of neurites (hippocampal neurons; hippocampal neurons, 24 h, 5 μM F3 module 2) | FGFR phosphorylation compared to the non-stimulated cells (human FGFR1) | changes of the chemical shifts in the presence of the Ig module 2 (FGFR Ig module 2)
1 | Nc1ncnc2c1ncn2[C@@H]1O[C@H](COP(=O)(O)OP(=O)(O)OP(=O)(O)O)[C@@H](O)[C@H]1O [ATP, adenosine triphosphate, reference compound] | 370 ± 50 | substantially reduced | completely inhibited | – | – | – | – | – | – | –
2 | FG loop peptide: peptide corresponding to residues E^72-A^86 of the NCAM F3 module 2 (EVYVVAENQQGKSKA; NCAM Fn III, 2 [Swiss-Prot P13591] FGFR binding motif) | – | – | – | ~100% | induced neurite outgrowth with a bell-shaped curve | 100 | cannot be detected | – | – | –
3 | B1 | – | – | – | approx. 150% | induced neurite outgrowth with a bell-shaped curve | – | – | substantially increased | substantially increase | No significant changes
